Laboratory results published in paper PMC3539437, “Solution Structures of PPARγ2/RXRα Complexes” (PPAR Research, 2012).
One block for each binder: values may come before it.

Key:
HsPPARγΔNTD (135–505) = molecular target: T1, HsPPARγΔNTD (135–505) (human, UniProt P37231 135-505); experiment: co-purification (affinity chromatography, gel filtration); heterodimer partners coexpressed (E. coli BL21 (DE3) or Sf9) and copurified in two steps; conditions: partners not purified
T1 construct: PPARγ2 without its N-terminal domain, human, residues 135-505 (PPARγ2 has 505 residues); Rosiglitazone was added in a 2-fold excess; also called PPARγ2ΔNTD
T1 sequence (looked up): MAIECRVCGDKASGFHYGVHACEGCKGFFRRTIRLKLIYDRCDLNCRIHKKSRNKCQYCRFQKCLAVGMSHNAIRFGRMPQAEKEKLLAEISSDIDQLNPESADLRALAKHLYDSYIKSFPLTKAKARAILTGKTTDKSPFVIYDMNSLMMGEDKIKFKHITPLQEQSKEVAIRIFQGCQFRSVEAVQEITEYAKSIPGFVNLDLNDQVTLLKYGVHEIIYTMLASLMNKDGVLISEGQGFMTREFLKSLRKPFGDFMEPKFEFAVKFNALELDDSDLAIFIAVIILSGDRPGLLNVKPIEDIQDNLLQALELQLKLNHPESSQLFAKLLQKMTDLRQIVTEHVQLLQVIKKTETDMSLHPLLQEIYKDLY

[1] = molecular target: T2, Full-length HsPPARγ2 (1–505) (human, UniProt P37231-1 1-505); experiment: SAXS; complexes bound to Cyp4A1 PPRE DNA; Tris 20 mM pH 7.5, NaCl 75 mM, KCl 75 mM, MgSO4 4 mM, Glycerol 5%, Chaps 2 mM; ligands CD3254 and rosiglitazone; conditions: both partners purified
T2 construct: PPARγ2, human, residues 1-505; Rosiglitazone was added in a 2-fold excess; also called PPARg2; full length PPARγ
T2 sequence (looked up): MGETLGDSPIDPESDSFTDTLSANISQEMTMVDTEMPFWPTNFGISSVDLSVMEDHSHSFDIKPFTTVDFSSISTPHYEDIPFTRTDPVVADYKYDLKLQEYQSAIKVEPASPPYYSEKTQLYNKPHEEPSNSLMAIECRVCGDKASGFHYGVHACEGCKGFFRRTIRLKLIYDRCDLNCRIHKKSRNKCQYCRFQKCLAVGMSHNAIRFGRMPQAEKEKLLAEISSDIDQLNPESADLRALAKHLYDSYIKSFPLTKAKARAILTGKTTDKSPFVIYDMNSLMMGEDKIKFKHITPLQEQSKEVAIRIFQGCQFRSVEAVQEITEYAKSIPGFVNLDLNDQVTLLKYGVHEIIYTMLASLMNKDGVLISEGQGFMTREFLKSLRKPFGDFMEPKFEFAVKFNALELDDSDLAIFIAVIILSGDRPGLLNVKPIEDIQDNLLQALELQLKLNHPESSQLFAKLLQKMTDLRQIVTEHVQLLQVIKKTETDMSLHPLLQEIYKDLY

HsPPARγ LBD (203–477) = molecular target: T3, HsPPARγ LBD (203–477) (human, UniProt P37231-2 203-477); experiment: co-purification (affinity chromatography, gel filtration); heterodimer partners coexpressed (E. coli BL21 (DE3) or Sf9) and copurified in two steps; conditions: partners not purified
T3 construct: Rosiglitazone was added in a 2-fold excess; also called PPAR LBD
T3 sequence (looked up): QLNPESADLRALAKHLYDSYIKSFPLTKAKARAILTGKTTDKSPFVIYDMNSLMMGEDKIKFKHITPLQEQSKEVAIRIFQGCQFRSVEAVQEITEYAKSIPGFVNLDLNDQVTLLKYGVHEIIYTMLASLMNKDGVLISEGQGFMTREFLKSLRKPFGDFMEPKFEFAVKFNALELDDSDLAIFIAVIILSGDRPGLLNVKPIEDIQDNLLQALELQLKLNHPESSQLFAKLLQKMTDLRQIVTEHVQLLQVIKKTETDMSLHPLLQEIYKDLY

[2] = molecular target: T4, PPARγΔNTD/RXRαΔNTD heterodimer (human, UniProt P37231 135-505; P19793 130-462); experiment: AUC; sedimentation equilibrium at 12,000 rpm, fitted with Sedphat; TIF2 RID with PPARγΔNTD/RXRαΔNTD/DNA; conditions: both partners purified
T4 construct: PPARγ2 without its N-terminal domain, human, residues 135-505; Retinoid X receptor alpha without its N-terminal domain, human, residues 130-462; nontagged; also called PPARγ2ΔNTD/RXRαΔNTD; PPARγΔNTD/RXRΔNTD
T4 sequence (looked up) 1: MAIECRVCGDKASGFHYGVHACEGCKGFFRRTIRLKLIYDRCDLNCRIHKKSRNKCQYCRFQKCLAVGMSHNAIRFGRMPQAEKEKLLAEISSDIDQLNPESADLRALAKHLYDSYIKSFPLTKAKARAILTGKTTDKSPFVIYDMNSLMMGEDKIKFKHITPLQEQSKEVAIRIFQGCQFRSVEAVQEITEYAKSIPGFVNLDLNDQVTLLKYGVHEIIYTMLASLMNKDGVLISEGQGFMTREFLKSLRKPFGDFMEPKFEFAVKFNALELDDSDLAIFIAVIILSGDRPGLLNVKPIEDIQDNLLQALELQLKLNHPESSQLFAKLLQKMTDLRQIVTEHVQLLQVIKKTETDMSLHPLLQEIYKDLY
T4 sequence (looked up) 2: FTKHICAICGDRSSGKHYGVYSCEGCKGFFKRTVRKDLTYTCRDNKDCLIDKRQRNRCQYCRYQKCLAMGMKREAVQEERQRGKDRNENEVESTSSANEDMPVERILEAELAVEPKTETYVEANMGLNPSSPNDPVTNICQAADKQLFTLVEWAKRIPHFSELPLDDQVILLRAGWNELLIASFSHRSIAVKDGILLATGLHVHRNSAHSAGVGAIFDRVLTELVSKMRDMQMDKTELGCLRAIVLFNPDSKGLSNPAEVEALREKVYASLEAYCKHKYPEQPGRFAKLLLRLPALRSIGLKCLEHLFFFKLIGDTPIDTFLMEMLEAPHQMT

[3] = molecular target: T5, PPARγ/RXRα LBDs heterodimer (human, UniProt P37231-2 203-477; P19793 223-462); experiment: native MS; ESI-MS under nondenaturing conditions, 200 mM ammonium acetate (pH 8.0 in the methods, pH 7.4 in the legend), capillary exit 80 V; conditions: both partners purified
T5 construct: nontagged; Ligands (CD3254 for RXR and rosiglitazone for PPAR) were added in a 2-fold excess; also called PPAR/RXR LBDs; LBD dimer
T5 sequence (looked up) 1: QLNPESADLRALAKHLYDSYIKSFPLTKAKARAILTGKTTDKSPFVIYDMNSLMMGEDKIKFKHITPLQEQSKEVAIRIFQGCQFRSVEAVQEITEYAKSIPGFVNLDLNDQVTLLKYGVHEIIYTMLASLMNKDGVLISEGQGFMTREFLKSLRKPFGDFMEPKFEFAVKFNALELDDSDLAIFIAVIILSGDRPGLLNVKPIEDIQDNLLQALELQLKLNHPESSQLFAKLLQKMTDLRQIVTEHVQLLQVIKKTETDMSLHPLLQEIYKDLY
T5 sequence (looked up) 2: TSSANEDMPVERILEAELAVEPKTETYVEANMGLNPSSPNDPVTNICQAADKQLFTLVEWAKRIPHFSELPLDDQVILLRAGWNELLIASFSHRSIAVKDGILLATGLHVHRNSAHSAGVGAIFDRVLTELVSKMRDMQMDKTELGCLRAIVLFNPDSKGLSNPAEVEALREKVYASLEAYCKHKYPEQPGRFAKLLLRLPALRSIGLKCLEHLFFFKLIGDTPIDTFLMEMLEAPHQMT

[4] = molecular target: T6, Full-length PPARγ2/RXRα heterodimer (human, UniProt P37231 1-505; P19793 1-462); experiment: SAXS; complexes bound to Cyp4A1 PPRE DNA; Tris 20 mM pH 7.5, NaCl 75 mM, KCl 75 mM, MgSO4 4 mM, Glycerol 5%, Chaps 2 mM; ligands CD3254 and rosiglitazone; conditions: both partners purified
T6 construct: PPARγ2, human, residues 1-505; Retinoid X receptor alpha, human, residues 1-462; also called integral PPARγ/RXRα; full-length heterodimer
T6 sequence (looked up) 1: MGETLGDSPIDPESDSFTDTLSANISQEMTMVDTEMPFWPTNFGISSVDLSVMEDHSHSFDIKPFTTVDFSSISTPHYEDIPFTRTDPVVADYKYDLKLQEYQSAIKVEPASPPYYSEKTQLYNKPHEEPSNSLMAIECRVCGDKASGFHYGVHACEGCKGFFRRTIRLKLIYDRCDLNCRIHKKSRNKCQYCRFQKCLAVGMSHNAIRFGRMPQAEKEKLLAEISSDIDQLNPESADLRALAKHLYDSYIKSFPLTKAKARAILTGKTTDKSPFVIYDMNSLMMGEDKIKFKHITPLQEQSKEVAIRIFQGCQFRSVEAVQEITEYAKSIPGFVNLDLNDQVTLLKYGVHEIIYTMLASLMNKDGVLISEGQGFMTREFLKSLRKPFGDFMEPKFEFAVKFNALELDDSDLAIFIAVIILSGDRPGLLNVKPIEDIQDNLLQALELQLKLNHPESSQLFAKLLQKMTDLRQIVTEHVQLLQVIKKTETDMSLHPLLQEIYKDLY
T6 sequence (looked up) 2: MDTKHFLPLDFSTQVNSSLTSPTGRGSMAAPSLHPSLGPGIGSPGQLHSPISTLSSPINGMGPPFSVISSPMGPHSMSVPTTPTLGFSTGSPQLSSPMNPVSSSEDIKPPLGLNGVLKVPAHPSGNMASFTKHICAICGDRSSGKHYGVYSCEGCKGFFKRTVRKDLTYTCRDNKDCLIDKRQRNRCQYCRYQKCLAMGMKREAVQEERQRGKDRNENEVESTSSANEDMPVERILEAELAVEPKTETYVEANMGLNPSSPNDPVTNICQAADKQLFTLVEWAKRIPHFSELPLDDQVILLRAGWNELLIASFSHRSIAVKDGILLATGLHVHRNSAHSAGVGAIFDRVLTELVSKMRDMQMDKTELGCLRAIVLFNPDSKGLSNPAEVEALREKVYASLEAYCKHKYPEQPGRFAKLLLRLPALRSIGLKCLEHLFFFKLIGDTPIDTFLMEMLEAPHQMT

binding result (HsPPARγΔNTD (135–505)): binds
binding result [1]: binds
B1: HsRXRαΔNTD (130–462) (domain or fragment, human, UniProt P19793 130-462, looked up)
chain: FTKHICAICGDRSSGKHYGVYSCEGCKGFFKRTVRKDLTYTCRDNKDCLIDKRQRNRCQYCRYQKCLAMGMKREAVQEERQRGKDRNENEVESTSSANEDMPVERILEAELAVEPKTETYVEANMGLNPSSPNDPVTNICQAADKQLFTLVEWAKRIPHFSELPLDDQVILLRAGWNELLIASFSHRSIAVKDGILLATGLHVHRNSAHSAGVGAIFDRVLTELVSKMRDMQMDKTELGCLRAIVLFNPDSKGLSNPAEVEALREKVYASLEAYCKHKYPEQPGRFAKLLLRLPALRSIGLKCLEHLFFFKLIGDTPIDTFLMEMLEAPHQMT
notes: Retinoid X receptor alpha without its N-terminal domain, human, residues 130-462; nontagged (pACYC plasmid); CD3254 was added in a 2-fold excess; also called RXRΔNTD

binding result (HsPPARγ LBD (203–477)): binds
B2: HsRXRα LBD (223–462) (domain or fragment, human, UniProt P19793 223-462, looked up)
chain: TSSANEDMPVERILEAELAVEPKTETYVEANMGLNPSSPNDPVTNICQAADKQLFTLVEWAKRIPHFSELPLDDQVILLRAGWNELLIASFSHRSIAVKDGILLATGLHVHRNSAHSAGVGAIFDRVLTELVSKMRDMQMDKTELGCLRAIVLFNPDSKGLSNPAEVEALREKVYASLEAYCKHKYPEQPGRFAKLLLRLPALRSIGLKCLEHLFFFKLIGDTPIDTFLMEMLEAPHQMT
notes: nontagged (pACYC plasmid); CD3254 was added in a 2-fold excess; also called RXR LBD

stoichiometry N [2]: 1 TIF2 RID per heterodimer
stoichiometry N [3]: 1 TIF2 RID per heterodimer
stoichiometry N [4]: 1 coactivator per receptor dimer
B3: HsTIF-2 (632–772), TIF2 receptor interacting domain (RID) (domain or fragment, human, UniProt Q15596 632-772, looked up)
chain: LHDSKGQTKLLQLLTTKSDQMEPSPLASSLSDTNKDSTGSLPGSGSTHGTSLKEKHKILHRLLQDSSSPVDLAKLTAEATGKDLSQESSSTAPGSEVTIKQEPVSPKKKENALLRYLLDKDDTKDIGLPEITPKLERLDSK
notes: TIF2 (NCoA2, p160 member), human, residues 632-772: 15 kDa fragment with the three LXXLL motifs; also called TIF2 RID; TIF-2 RID
